3 molecules from paper PMC7186176, “Structural basis of cell-surface signaling by a conserved sigma regulator in Gram-negative bacteria” (The Journal of Biological Chemistry, 2020) can be followed below.

B1: MBP-tagged PupR CCSSD (PupR residues 110–324) (domain or fragment, Pseudomonas capeferrum, UniProt Q52209 110-324, looked up)
chain: QDWRADYHSRIGEQRRLTLADGTQVQLNTDSALNVAFDQQARRLRLVRGEMLITRPALADSRPLWVDTEHGRLESTLAQFNVRLHGQHTQATVYQGSVALQPALHAYPPILLGAGEQASFNQQGLLARQAVAAVAPAWSQGMLVAQGQPLAAFIEDLARYRRGHLACDPALAGLRVSGTFPLENTDKIIAAVAETLQLEVQHFTRYWVTLKPRMA
notes: PupR, inner membrane sigma regulator of Pseudomonas capeferrum (formerly Pseudomonas putida WCS358), periplasmic CCSSD, residues 110-324; also called complete CCSSD; C-terminal cell-surface signaling domain; source: E. coli BL21(DE3)pLysS, co-expressed with GST-PupB NTSD, clarified lysate (pull-down); not shown: MBP, N-terminal, kept
B2: PupB NTSD (purified) (domain or fragment, Pseudomonas capeferrum, UniProt P38047 49-128, looked up)
chain: AQADFDIPAGPLAPALAHFGQSAHILLSYPTALTEGRSTSGLAGRFDIDQGLAILLAGTGLEASRGANASYSLQASASTG
notes: PupB, outer membrane TonB-dependent transducer of Pseudomonas capeferrum (formerly Pseudomonas putida WCS358), N-terminal signaling domain; also called N-terminal signaling domain of PupB
B3: PupR CCSSD (PupR residues 110–324, MBP cleaved) (domain or fragment, Pseudomonas capeferrum)
chain: GAMGQDWRADYHSRIGEQRRLTLADGTQVQLNTDSALNVAFDQQARRLRLVRGEMLITRPALADSRPLWVDTEHGRLESTLAQFNVRLHGQHTQATVYQGSVALQPALHAYPPILLGAGEQASFNQQGLLARQAVAAVAPAWSQGMLVAQGQPLAAFIEDLARYRRGHLACDPALAGLRVSGTFPLENTDKIIAAVAETLQLEVQHFTRYWVTLKPRMA
notes: 4-residue cloning artifact left after TEV cleavage; PupR, inner membrane sigma regulator of Pseudomonas capeferrum (formerly Pseudomonas putida WCS358), periplasmic CCSSD, residues 110-324; 219-residue product with the GAMG artifact; About 90% pure, some MBP contamination; also called native PupR CCSSD; not shown: MBP, N-terminal, cleaved

Common to all, as to settings: both partners purified
The target in assay [1] is B2. As to the kind of experiment: ITC; MBP-tagged PupR CCSSD (220-235 μM) titrated into PupB NTSD (27.5-40 μM); 15 °C; 25 mM HEPES pH 7.5, 400 mM LiCl, 10% glycerol; global fit of three runs in SEDPHAT with a local incompetent fraction. On the technique in general: ITC needs no label: the signal is the heat of the interaction.
Assay [2] concerns the target B2. Described as above. This is another data set of the same source.
The target of assay [3] is B1. The description is as above.
For assay [4], the target named is B2. As to the kind of experiment: SEC-SAXS; inline Superdex 200 Increase 10/300; 25 mM HEPES pH 7.5, 400 mM LiCl, 10% glycerol; 800 μM complex (1:1 mix, 30 min at room temperature) or 400 μM PupR CCSSD alone injected; ambient temperature. In general terms: In gel filtration, larger molecules generally elute earlier.

The stoichiometry N is a count of units in the complex or per binding partner. As to B1, the dH in assay [1] was -17.7 kcal/mol. For the same molecule, the “stoichiometry N” value in assay [2] worked out at 1. As usually defined, the Kd is the concentration at which binding is half-saturated. A higher Kd goes with a looser complex. In turn, B2 had a Kd in assay [3] of 690 nM. This counts as sub-micromolar. As for B3, the “stoichiometry N” value in assay [4] was determined as 1.
